Data: patent US20030108554A1 (published 2003)

Key:
Assay in all cases: yeast two-hybrid
GIP130a = target: T1, GIP130a (human, UniProt Q4L180 1-1135)
T1 construct: Full length; tested as GAL4 domain fusion in yeast two-hybrid
T1 sequence: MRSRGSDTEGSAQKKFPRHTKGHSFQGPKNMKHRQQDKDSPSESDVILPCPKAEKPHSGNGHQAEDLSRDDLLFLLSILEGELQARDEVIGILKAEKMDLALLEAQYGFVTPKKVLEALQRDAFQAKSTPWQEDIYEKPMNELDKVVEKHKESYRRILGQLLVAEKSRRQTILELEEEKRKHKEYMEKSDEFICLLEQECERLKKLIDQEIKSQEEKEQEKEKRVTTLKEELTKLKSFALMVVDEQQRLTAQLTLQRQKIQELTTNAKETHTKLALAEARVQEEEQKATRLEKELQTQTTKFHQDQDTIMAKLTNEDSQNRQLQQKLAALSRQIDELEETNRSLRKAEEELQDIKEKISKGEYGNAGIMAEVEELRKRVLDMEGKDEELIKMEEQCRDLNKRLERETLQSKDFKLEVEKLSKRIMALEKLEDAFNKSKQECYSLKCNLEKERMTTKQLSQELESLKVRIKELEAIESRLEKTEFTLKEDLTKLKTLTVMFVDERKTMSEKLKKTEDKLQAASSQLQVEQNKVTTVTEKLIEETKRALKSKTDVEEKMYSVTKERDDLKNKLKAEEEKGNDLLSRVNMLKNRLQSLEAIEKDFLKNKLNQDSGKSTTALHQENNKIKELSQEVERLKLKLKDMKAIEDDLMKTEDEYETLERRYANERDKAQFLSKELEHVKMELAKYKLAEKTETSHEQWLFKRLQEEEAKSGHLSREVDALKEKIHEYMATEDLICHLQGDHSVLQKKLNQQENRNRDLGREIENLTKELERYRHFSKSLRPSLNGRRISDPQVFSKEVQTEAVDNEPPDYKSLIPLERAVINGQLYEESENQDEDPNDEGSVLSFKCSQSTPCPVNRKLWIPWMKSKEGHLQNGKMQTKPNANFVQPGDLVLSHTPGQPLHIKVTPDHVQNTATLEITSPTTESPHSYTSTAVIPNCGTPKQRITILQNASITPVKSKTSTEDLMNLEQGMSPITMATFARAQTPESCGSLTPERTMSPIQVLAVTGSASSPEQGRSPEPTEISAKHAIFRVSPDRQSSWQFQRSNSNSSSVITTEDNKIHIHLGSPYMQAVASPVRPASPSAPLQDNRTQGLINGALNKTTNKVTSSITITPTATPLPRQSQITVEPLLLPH

yeast two-hybrid = target: the molecule itself
GIP130c = target: T2, GIP130c (human, UniProt Q4L180 1-1128)
T2 construct: Full length; tested as GAL4 domain fusion in yeast two-hybrid
T2 sequence: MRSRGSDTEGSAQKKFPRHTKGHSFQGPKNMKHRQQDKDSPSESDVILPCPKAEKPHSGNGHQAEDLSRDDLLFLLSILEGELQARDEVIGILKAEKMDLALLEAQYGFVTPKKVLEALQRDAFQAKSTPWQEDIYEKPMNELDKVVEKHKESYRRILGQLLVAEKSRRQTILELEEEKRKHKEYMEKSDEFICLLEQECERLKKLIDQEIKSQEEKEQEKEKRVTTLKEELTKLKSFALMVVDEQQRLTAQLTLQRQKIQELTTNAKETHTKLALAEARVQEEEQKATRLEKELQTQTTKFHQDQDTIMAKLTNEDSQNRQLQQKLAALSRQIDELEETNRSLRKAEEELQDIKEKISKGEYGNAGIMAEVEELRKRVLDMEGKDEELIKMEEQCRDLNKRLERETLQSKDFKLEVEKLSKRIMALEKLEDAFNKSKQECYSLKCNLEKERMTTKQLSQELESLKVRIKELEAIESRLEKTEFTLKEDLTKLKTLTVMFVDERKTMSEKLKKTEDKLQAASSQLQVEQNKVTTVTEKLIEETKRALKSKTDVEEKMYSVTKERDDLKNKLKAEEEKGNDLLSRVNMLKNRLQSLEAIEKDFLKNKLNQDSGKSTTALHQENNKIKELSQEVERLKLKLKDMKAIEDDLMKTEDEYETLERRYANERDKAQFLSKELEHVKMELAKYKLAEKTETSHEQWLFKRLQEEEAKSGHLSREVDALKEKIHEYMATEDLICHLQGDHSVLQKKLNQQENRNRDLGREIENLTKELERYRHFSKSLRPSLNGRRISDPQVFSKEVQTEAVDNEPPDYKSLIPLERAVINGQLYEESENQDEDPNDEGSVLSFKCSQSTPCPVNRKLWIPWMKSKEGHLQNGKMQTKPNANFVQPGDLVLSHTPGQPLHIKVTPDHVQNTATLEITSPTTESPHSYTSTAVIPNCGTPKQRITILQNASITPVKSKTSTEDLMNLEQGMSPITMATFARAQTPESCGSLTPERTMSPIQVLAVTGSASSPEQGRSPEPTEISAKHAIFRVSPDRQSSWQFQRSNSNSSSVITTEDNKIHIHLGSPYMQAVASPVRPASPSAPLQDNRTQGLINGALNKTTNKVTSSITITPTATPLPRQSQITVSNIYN

GIP130b = target: T3, GIP130b (human, UniProt Q4L180 1-1128)
T3 construct: Full length; tested as GAL4 domain fusion in yeast two-hybrid
T3 sequence: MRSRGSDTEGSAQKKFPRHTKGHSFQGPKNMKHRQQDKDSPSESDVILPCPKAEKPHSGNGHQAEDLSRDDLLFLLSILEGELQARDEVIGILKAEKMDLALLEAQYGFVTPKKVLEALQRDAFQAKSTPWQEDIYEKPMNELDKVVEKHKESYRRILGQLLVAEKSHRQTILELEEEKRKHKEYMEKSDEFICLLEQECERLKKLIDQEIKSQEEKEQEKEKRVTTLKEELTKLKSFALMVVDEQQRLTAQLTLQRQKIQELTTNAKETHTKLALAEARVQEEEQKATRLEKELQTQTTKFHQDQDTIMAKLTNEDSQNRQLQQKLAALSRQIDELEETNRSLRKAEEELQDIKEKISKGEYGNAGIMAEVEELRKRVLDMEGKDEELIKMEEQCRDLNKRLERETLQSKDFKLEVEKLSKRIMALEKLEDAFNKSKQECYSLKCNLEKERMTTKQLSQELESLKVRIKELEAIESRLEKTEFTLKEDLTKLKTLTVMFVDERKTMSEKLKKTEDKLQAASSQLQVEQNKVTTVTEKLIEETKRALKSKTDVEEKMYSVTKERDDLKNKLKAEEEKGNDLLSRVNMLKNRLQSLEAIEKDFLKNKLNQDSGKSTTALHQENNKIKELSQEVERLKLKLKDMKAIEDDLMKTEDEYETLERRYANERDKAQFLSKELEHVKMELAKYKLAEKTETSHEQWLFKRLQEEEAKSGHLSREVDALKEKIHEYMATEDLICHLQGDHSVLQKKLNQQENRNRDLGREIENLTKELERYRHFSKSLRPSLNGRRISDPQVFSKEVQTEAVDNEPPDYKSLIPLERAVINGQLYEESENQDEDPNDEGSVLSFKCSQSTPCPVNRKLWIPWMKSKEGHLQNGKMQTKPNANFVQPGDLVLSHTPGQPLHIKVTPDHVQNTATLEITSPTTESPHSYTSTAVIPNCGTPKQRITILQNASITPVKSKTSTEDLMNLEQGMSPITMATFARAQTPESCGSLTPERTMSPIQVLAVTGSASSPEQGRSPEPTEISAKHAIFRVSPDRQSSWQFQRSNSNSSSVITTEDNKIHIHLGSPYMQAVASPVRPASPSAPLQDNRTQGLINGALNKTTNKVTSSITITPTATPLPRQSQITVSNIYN

binding result (GIP130a): binds
binding result (GIP130c): binds
binding result (GIP130b): binds
B1: GIP90 (GPBP interacting protein 90 kDa) (other)
chain: MRSRGSDTEGSAQKKFPRHTKGHSFQGPKNMKHRQQDKDSPSESDVILPCPKAEKPHSGNGHQAEDLSRDDLLFLLSILEGELQARDEVIGILKAEKMDLALLEAQYGFVTPKKVLEALQRDAFQAKSTPWQEDIYEKPMNELDKVVEKHKESYRRILGQLLVAEKSRRQTILELEEEKRKHKEYMEKSDEFICLLEQECERLKKLIDQEIKSQEEKEQEKEKRVTTLKEELTKLKSFALMVVDEQQRLTAQLTLQRQKIQELTTNAKETHTKLALAEARVQEEEQKATRLEKELQTQTTKFHQDQDTIMAKLTNEDSQNRQLQQKLAALSRQIDELEETNRSLRKAEEELQDIKEKISKGEYGNAGIMAEVEELRKRVLDMEGKDEELIKMEEQCRDLNKRLERETLQSKDFKLEVEKLSKRIMALEKLEDAFNKSKQECYSLKCNLEKERMTTKQLSQELESLKVRIKELEAIESRLEKTEFTLKEDLTKLKTLTVMFVDERKTMSEKLKKTEDKLQAASSQLQVEQNKVTTVTEKLIEETKRALKSKTDVEEKMYSVTKERDDLKNKLKAEEEKGNDLLSRVNMLKNRLQSLEAIEKDFLKNKLNQDSGKSTTALHQENNKIKELSQEVERLKLKLKDMKAIEDDLMKTEDEYETLERRYANERDKAQFLSKELEHVKMELAKYKLAEKTETSHEQWLFKRLQEEEAKSGHLSREVDALKEKIHEYMATEDLICHLQGDHSVLQKKTKSTRKQEQRFRKRD
notes: Full length; tested as GAL4 domain fusion in yeast two-hybrid/three-hybrid; fusion parts are not written as pieces
binding result (yeast two-hybrid): binds
